Reference: article PMC3338718, “Characterization of a Novel ArsR-Like Regulator Encoded by Rv2034 in Mycobacterium tuberculosis”

Columns and labels:
[1] = molecular target: T1, Rv2034 (ArsR family regulator) (Mycobacterium tuberculosis) (UniProt O53478); experiment: EMSA
T1 sequence: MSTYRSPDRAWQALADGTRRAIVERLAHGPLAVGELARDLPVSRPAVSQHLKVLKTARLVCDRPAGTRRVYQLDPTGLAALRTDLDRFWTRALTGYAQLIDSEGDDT

[2] = molecular target: T2, Rv2034ΔN28 del1-28 (Mycobacterium tuberculosis) (UniProt O53478); experiment: EMSA
T2 sequence: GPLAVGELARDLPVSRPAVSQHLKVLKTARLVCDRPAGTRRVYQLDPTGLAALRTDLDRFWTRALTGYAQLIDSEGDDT

[3] = molecular target: T1, Rv2034 (ArsR family regulator) (Mycobacterium tuberculosis); experiment: competition
[4] = molecular target: T1, Rv2034 (ArsR family regulator) (Mycobacterium tuberculosis); experiment: DNase I footprinting
[5] = molecular target: T3, Rv2034 (ArsR family regulator) (Mycobacterium tuberculosis, UniProt O53478 1-107); experiment: EMSA; 0.1-1.2 uM protein; conditions: protein: recombinant; tags: N-terminal His6 (pET28a); chain copies: 2; label: 5' label (32P or FITC); blunt
T3 sequence: T1 sequence

## AATTTCTAGAGCCTGCGGCAAGCACGTCGGTTCCATAGCGATCCAGCACGCCGCAATACTAGGGAGCCTCTCTGCCGGTCATCGCCGCGACGCGCCGCATGGGTTCTCGGAAAATGCTTGTACCAGTCGACTTTCCGGCGGGCCAACGTCGCCAACCGATACTCGGCTCCAACGCCATGGGTGACGGGATGCCCGGATCACGTGTCACACCACCCGCGCACCCTTGCGGAAGAATATCCGTAAGTCTAAACTTACGGTTCGAATTCCCGG (double strand) [Rv2034p promoter]
[1]
  binding: binds
[2]
  binding: no binding
[3]
  binding: binds

## ACTGTCTAGAGTTGGCGCATGTACACCTGAGCCGTCGGCTCGCCCACTGGACCCGGCTCTACCCCGAGGTGCGGGTGGATCGGGCCATCGCCGGCGGCAGTGCGTGCCGTCATCTGGCCGCCAACGCAAAGCCGGGTCAGCTGTTCGTCGCGGACTCACACTCCGCGCACGAATTGTGCGGTGCATACCAGCCCGGATGCGCCGTACTTACGGTACGCAGTGCCAACTTGTAGGGAGCGGATCTTGGGAGTGGTGCCCTGGAATTCATCT (double strand) [Rv3133cp (dosR promoter)]
[1]
  binding: binds

## GATAGAATTCTACCAGTCGACTTTCCGGCGGGCCAACGTCGCCAACCGATACTCGGCTCCAACGCCATGGGTGACGGGATGCCCGGATCACGTGTCACACCACCCGCGCACCCTTGCGGAAGAATATCCGTAAGTCTAAACTTACGGTTCGTGTCCACTTACAGATCACCGGATCGCGCTTGGCAGGCGCTGGCGGACGGCACTCGCCGGGCCATCGTGGAGCGGCTGGCGCATCTAGATGTC (double strand) [Rv2034p footprint fragment]
[4]
  binding: binds

B1: Rv2034BSwt (dsDNA)
DNA 1: GGAAGAATATCCGTAAGTCTAAACTTACGGTTCGTGTCCA
DNA 2: TGGACACGAACCGTAAGTTTAGACTTACGGATATTCTTCC
[5]
  binding result: binds
